# Measurements from the Immune Epitope Database (IEDB).
# Key:
# HLA-A*02:01 [1] = experiment: IEDB peptide-MHC binding, purified MHC/competitive/fluorescence; ≥ and ≤ were set here for values at or beyond the usual limits of such assays
# HLA-A*03:01 [2] = experiment: as above; conditions: source organism: Zaire ebolavirus
# HLA-A*11:01 [3] = experiment: as above; conditions: source organism: Zaire ebolavirus
# HLA-B*15:01 [4] = experiment: as above
# HLA-B*18:01 = experiment: IEDB peptide-MHC binding, purified MHC/competitive/fluorescence; filed as Kd, often an IC50 or EC50 that approximates it; ≥ and ≤ were set here for values at or beyond the usual limits of such assays; conditions: source organism: Vibrio parahaemolyticus K5030
# HLA-A*02:19 = experiment: as above; conditions: source organism: Vibrio parahaemolyticus K5030
# HLA-B*51:01 = experiment: as above; conditions: source organism: Vibrio parahaemolyticus K5030
# HLA-A*02:01 [5] = experiment: as above; conditions: source organism: Vibrio parahaemolyticus K5030
# HLA-A*03:01 [6] = experiment: as above; conditions: source organism: Vibrio parahaemolyticus K5030
# HLA-B*27:03 = experiment: as above; conditions: source organism: Vibrio parahaemolyticus K5030
# HLA-B*39:01 = experiment: as above; conditions: source organism: Vibrio parahaemolyticus K5030
# HLA-A*02:11 = experiment: as above; conditions: source organism: Vibrio parahaemolyticus K5030
# HLA-B*46:01 = experiment: as above; conditions: source organism: Vibrio parahaemolyticus K5030
# HLA-B*57:01 [7] = experiment: as above; conditions: source organism: Vibrio parahaemolyticus K5030
# HLA-A*26:01 [8] = experiment: as above; conditions: source organism: Vibrio parahaemolyticus K5030
# HLA-A*02:03 = experiment: as above; conditions: source organism: Vibrio parahaemolyticus K5030
# HLA-B*15:01 [9] = experiment: as above; conditions: source organism: Vibrio parahaemolyticus K5030
# HLA-A*02:12 = experiment: as above; conditions: source organism: Vibrio parahaemolyticus K5030
# HLA-A*29:02 = experiment: as above; conditions: source organism: Vibrio parahaemolyticus K5030
# HLA-B*27:05 = experiment: IEDB peptide-MHC binding, purified MHC/direct/fluorescence; filed as Kd, often an IC50 or EC50 that approximates it; ≥ and ≤ were set here for values at or beyond the usual limits of such assays
# HLA-B*44:02 = experiment: as above
# HLA-A*01:01 = experiment: as above
# HLA-A*02:01 [10] = experiment: as above
# HLA-B*07:02 = experiment: as above
# HLA-A*03:01 [11] = experiment: as above
# HLA-A*30:01 = experiment: as above
# HLA-B*40:01 = experiment: as above
# HLA-A*11:01 [12] = experiment: as above
# HLA-A*26:01 [13] = experiment: as above
# HLA-B*15:01 [14] = experiment: as above
# HLA-B*58:01 = experiment: as above
# HLA-B*08:01 = experiment: as above
# HLA-A*69:01 = experiment: as above
# HLA-A*24:03 = experiment: as above
# HLA-A*23:01 = experiment: as above; conditions: source organism: Orthohantavirus hantanense
# HLA-C*15:02 = experiment: as above
# HLA-B*15:17 = experiment: as above
# HLA-A*31:01 = experiment: as above
# HLA-B*35:01 = experiment: as above
# HLA-B*57:01 [15] = experiment: as above
# HLA-A*24:02 = experiment: IEDB peptide-MHC binding, purified MHC/competitive/fluorescence; ≥ and ≤ were set here for values at or beyond the usual limits of such assays; conditions: source organism: Zaire ebolavirus
# [16] = source organism: Zaire ebolavirus
# [17] = source organism: Giardia lamblia ATCC 50803
# [18] = source organism: Camelpox virus M-96
# [19] = source organism: Campylobacter jejuni RM1221
# [20] = source organism: Campylobacter jejuni
# [21] = source organism: Vibrio parahaemolyticus
# [22] = source organism: Vaccinia virus
# [23] = source organism: Pseudomonas savastanoi
# [24] = source organism: Pseudomonas aeruginosa
sequence,measurement,setting,value
AALSSLAKH,IC50,HLA-A*02:01 [1]; [16],≥ 98.5 µM
same,IC50,HLA-A*03:01 [2],≥ 92.7 µM
same,IC50,HLA-A*11:01 [3],9.21 µM
same,IC50,HLA-B*15:01 [4]; [16],≥ 156 µM
AGGWVLWKV,Kd,HLA-B*18:01,≥ 20 µM
same,Kd,HLA-A*02:19,≥ 20 µM
same,Kd,HLA-B*51:01,≥ 20 µM
same,Kd,HLA-A*02:01 [5],≥ 20 µM
same,Kd,HLA-A*03:01 [6],≥ 20 µM
same,Kd,HLA-B*27:03,≥ 20 µM
same,Kd,HLA-B*39:01,≥ 20 µM
same,Kd,HLA-A*02:11,0.0015 µM
same,Kd,HLA-B*46:01,≥ 20 µM
same,Kd,HLA-B*57:01 [7],≥ 20 µM
same,Kd,HLA-A*26:01 [8],≥ 20 µM
same,Kd,HLA-A*02:03,≥ 20 µM
same,Kd,HLA-B*15:01 [9],≥ 20 µM
same,Kd,HLA-A*02:12,≥ 20 µM
same,Kd,HLA-A*29:02,≥ 20 µM
AIPYFYKGK,Kd,HLA-B*27:05; [17],≥ 20 µM
same,Kd,HLA-B*44:02; [17],≥ 20 µM
same,Kd,HLA-A*01:01; [17],≥ 20 µM
same,Kd,HLA-A*02:01 [10]; [17],≥ 20 µM
same,Kd,HLA-B*07:02; [17],≥ 20 µM
same,Kd,HLA-A*03:01 [11]; [17],≥ 20 µM
same,Kd,HLA-A*30:01; [17],12.5 µM
same,Kd,HLA-B*40:01; [17],≥ 20 µM
same,Kd,HLA-A*11:01 [12]; [17],0.308 µM
same,Kd,HLA-A*26:01 [13]; [17],≥ 20 µM
same,Kd,HLA-B*15:01 [14]; [17],≥ 20 µM
same,Kd,HLA-B*58:01; [17],≥ 20 µM
same,Kd,HLA-B*08:01; [17],≥ 20 µM
same,Kd,HLA-A*69:01; [17],≥ 20 µM
same,Kd,HLA-A*24:03; [17],13 µM
FFQNETQKY,Kd,HLA-A*23:01,1.4 µM
same,Kd,HLA-A*24:03; source organism: Orthohantavirus hantanense,1.3 µM
ITASKDLCF,Kd,HLA-B*27:05; [17],≥ 20 µM
same,Kd,HLA-B*44:02; [17],≥ 20 µM
same,Kd,HLA-A*01:01; [17],8.69 µM
same,Kd,HLA-A*02:01 [10]; [17],≥ 20 µM
same,Kd,HLA-B*07:02; [17],≥ 20 µM
same,Kd,HLA-A*03:01 [11]; [17],≥ 20 µM
same,Kd,HLA-B*40:01; [17],≥ 20 µM
same,Kd,HLA-A*11:01 [12]; [17],≥ 20 µM
same,Kd,HLA-C*15:02; [17],3.85 µM
same,Kd,HLA-B*15:17; [17],0.0028 µM
same,Kd,HLA-A*26:01 [13]; [17],≥ 20 µM
same,Kd,HLA-B*15:01 [14]; [17],0.301 µM
same,Kd,HLA-B*58:01; [17],0.433 µM
same,Kd,HLA-B*08:01; [17],≥ 20 µM
same,Kd,HLA-A*69:01; [17],≥ 20 µM
same,Kd,HLA-A*31:01; [17],≥ 20 µM
same,Kd,HLA-B*35:01; [17],0.365 µM
KSLVQYIKF,Kd,HLA-C*15:02; source organism: Vaccinia virus WR,≥ 20 µM
same,Kd,HLA-B*57:01 [15]; [18],0.508 µM
same,Kd,HLA-B*58:01; [18],0.0635 µM
KSNEKNMDF,Kd,HLA-B*27:05; [19],≥ 20 µM
same,Kd,HLA-B*44:02; [19],≥ 20 µM
same,Kd,HLA-A*02:01 [10]; [19],≥ 20 µM
same,Kd,HLA-B*07:02; [19],≥ 20 µM
same,Kd,HLA-A*03:01 [11]; [19],≥ 20 µM
same,Kd,HLA-B*40:01; [19],≥ 20 µM
same,Kd,HLA-A*11:01 [12]; [19],≥ 20 µM
same,Kd,HLA-C*15:02; source organism: Campylobacter jejuni subsp. jejuni NCTC 11168 = ATCC 700819,0.15 µM
same,Kd,HLA-B*15:17; [19],0.0073 µM
same,Kd,HLA-B*57:01 [15]; [19],0.467 µM
same,Kd,HLA-A*26:01 [13]; [19],≥ 20 µM
same,Kd,HLA-B*15:01 [14]; [20],0.215 µM
same,Kd,HLA-B*58:01; [20],0.063 µM
same,Kd,HLA-B*08:01; [19],≥ 20 µM
same,Kd,HLA-A*69:01; [19],≥ 20 µM
same,Kd,HLA-A*31:01; [19],≥ 20 µM
same,Kd,HLA-B*35:01; [20],3.16 µM
QLIIQAFEA,IC50,HLA-A*02:01 [1]; [16],0.884 µM
same,IC50,HLA-B*15:01 [4]; [16],≥ 720 µM
RATTELRTF,IC50,HLA-A*24:02,0.6 µM
same,IC50,HLA-B*15:01 [4]; [16],55.5 µM
RTHTLRDAK,Kd,HLA-B*27:05; [21],≥ 20 µM
same,Kd,HLA-A*01:01; [21],≥ 20 µM
same,Kd,HLA-A*02:01 [10]; [21],≥ 20 µM
same,Kd,HLA-B*07:02; [21],≥ 20 µM
same,Kd,HLA-A*03:01 [11]; [21],0.93 µM
same,Kd,HLA-A*30:01; [21],0.0209 µM
same,Kd,HLA-B*40:01; [21],≥ 20 µM
same,Kd,HLA-A*11:01 [12]; [21],0.0535 µM
same,Kd,HLA-A*26:01 [13]; [21],≥ 20 µM
same,Kd,HLA-B*58:01; [21],≥ 20 µM
same,Kd,HLA-B*08:01; [21],≥ 20 µM
same,Kd,HLA-A*69:01; [21],≥ 20 µM
same,Kd,HLA-A*24:03; [21],0.472 µM
same,Kd,HLA-A*31:01; [21],0.134 µM
RTRFFCIPK,Kd,HLA-B*27:05; [17],0.321 µM
same,Kd,HLA-B*44:02; [17],≥ 20 µM
same,Kd,HLA-A*01:01; [17],≥ 20 µM
same,Kd,HLA-A*02:01 [10]; [17],17.4 µM
same,Kd,HLA-B*07:02; [17],≥ 20 µM
same,Kd,HLA-A*03:01 [11]; [17],0.0273 µM
same,Kd,HLA-A*30:01; [17],0.00137 µM
same,Kd,HLA-B*40:01; [17],≥ 20 µM
same,Kd,HLA-A*11:01 [12]; [17],0.0209 µM
same,Kd,HLA-A*26:01 [13]; [17],≥ 20 µM
same,Kd,HLA-B*15:01 [14]; [17],≥ 10 µM
same,Kd,HLA-B*58:01; [17],≥ 20 µM
same,Kd,HLA-B*08:01; [17],≥ 20 µM
same,Kd,HLA-A*69:01; [17],≥ 20 µM
same,Kd,HLA-A*24:03; [17],≥ 20 µM
same,Kd,HLA-A*31:01; [17],0.0182 µM
SQYVDDANL,IC50,HLA-A*02:01 [1]; [22],45.4 µM
same,IC50,HLA-B*15:01 [4]; [22],≥ 404 µM
TNFEFFGKL,Kd,HLA-C*15:02; source organism: Caenorhabditis elegans,1.6 µM
TYYPQVVLG,Kd,HLA-B*27:05; [23],≥ 20 µM
same,Kd,HLA-A*01:01; [23],≥ 20 µM
same,Kd,HLA-A*02:01 [10]; [23],≥ 20 µM
same,Kd,HLA-B*07:02; [23],≥ 20 µM
same,Kd,HLA-A*03:01 [11]; [23],≥ 20 µM
same,Kd,HLA-A*30:01; [24],≥ 10 µM
same,Kd,HLA-B*40:01; [23],≥ 20 µM
same,Kd,HLA-A*11:01 [12]; [24],5.12 µM
same,Kd,HLA-B*15:01 [14]; [24],≥ 20 µM
same,Kd,HLA-B*58:01; [24],6.85 µM
same,Kd,HLA-B*08:01; [23],≥ 20 µM
same,Kd,HLA-A*69:01; [23],≥ 20 µM
same,Kd,HLA-A*24:03; [24],3.2 µM
